± gives the uncertainty stated by the source.
Assay: self-splicing fitness, log relative to wild type (ln ratio); higher = more splicing; Tetrahymena group I intron in knt gene, E. coli kanamycin selection, DiMSum; sequences stand for … in CUCUCU…GGAGGGAAAAGUUAUCAGGCAUGCACCUGGUAGCUAGUCUUUAAACCAAUAGAUUGCAUCGGUUUAAAAGGCAAGACCGUCAAAUUGCGGGAAAGGGGUCAACAGCCGUUCAGUACCAAGUCUCAGGGGAAACUUUGAGAUGGCCUUGCAAAGGGUAUGGUAAUAAGCUGACGGACAUGGUCCUAACCACGCAGCCAAGUCCUAAGUCAACAGAUCUUCUGUUGAUAUGGAUGCAGUUCACAGACUAAAUGUCGGUCGGGGAAGAUGUAUUCUUCUCAUAAGAUAUAGUCGGACCUCUCCUUAAUGGGAGCUAGCGGAUGAAGUGAUGCAACACUGGAGCCGCUGGGAACUAAUUUGUAUGCGAAAGUAUAUUGAUUAGUUUUGGAGUACUCGUGGUCG
Method in brief: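 Pooled colonies went to amplicon sequencing on an Illumina HiSeq 2500 after six replicate transformations. The plates were LB agar with 100 μg/mL carbenicillin, 50 μM IPTG and 0.2% rhamnose, with or without 25 μg/mL kanamycin, incubated overnight at 37°C or 30°C. The E. coli BL21(DE3) library had all eight P1ex-region intron nucleotides randomised, the intron placed in the knt kanamycin-resistance gene on pET-22b(+). DiMSum fitness is the error-weighted combination of replicate fold changes, kanamycin against none, normalised to wild type.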

Sequence	self-splicing fitness (ln) (30 °C)	self-splicing fitness (ln) (37 °C)
UUCAAGCAAUAUUACGUUGA	-2.77 ± 0.21	-2.7 ± 0.21
UUCCAGCAAUAUUACGAAGG	-3.8 ± 0.22	-3.2 ± 0.37
UUCCAGCAAUAUUACGAAUC	-4.37 ± 0.31	-1.09 ± 0.41
UUCCAGCAAUAUUACGACCG	-1.25 ± 0.099	-0.758 ± 0.14
UUCCAGCAAUAUUACGACUG	-3.9 ± 0.21	-2.99 ± 0.23
UUCCAGCAAUAUUACGAGAU	-3.68 ± 0.43	-0.948 ± 0.19
UUCCAGCAAUAUUACGAGGG	-3.28 ± 0.15	-1.28 ± 0.15
UUCCAGCAAUAUUACGAUCA	-1.26 ± 0.2	-1.27 ± 0.2
UUCCAGCAAUAUUACGCACG	-1.72 ± 0.086	-0.884 ± 0.13
UUCCAGCAAUAUUACGCACU	-3.48 ± 0.31	-0.748 ± 0.16
UUCCAGCAAUAUUACGCAGC	-3.77 ± 0.33	-2.31 ± 0.35
UUCCAGCAAUAUUACGCAUA	-0.568 ± 0.093	0.161 ± 0.096
UUCCAGCAAUAUUACGCCUA	-0.199 ± 0.076	0.206 ± 0.091
UUCCAGCAAUAUUACGCCUC	-1.84 ± 0.21	-0.711 ± 0.29
UUCCAGCAAUAUUACGCCUG	-3.5 ± 0.47	-2.35 ± 0.39
UUCCAGCAAUAUUACGCGAC	-3.35 ± 0.24	-0.902 ± 0.19
UUCCAGCAAUAUUACGCGAU	-2.85 ± 0.21	-1.32 ± 0.18
UUCCAGCAAUAUUACGCGCC	-2.72 ± 0.24	-0.4 ± 0.21
UUCCAGCAAUAUUACGCGCG	-0.776 ± 0.068	-0.688 ± 0.099
UUCCAGCAAUAUUACGCUGU	-3.96 ± 0.24	-2.42 ± 0.22
UUCCAGCAAUAUUACGCUUA	-0.131 ± 0.066	-0.175 ± 0.077
UUCCAGCAAUAUUACGGAUG	-0.779 ± 0.058	0.293 ± 0.076
UUCCAGCAAUAUUACGGCAG	-0.446 ± 0.075	-0.096 ± 0.11
UUCCAGCAAUAUUACGGCCA	-1.08 ± 0.13	0.682 ± 0.16
UUCCAGCAAUAUUACGGCUC	-2.48 ± 0.21	-0.924 ± 0.21
UUCCAGCAAUAUUACGGGCC	-3.91 ± 0.3	-2.34 ± 0.33

Sequence	self-splicing fitness (ln) (30 °C)	self-splicing fitness (ln) (37 °C)
UUCCAGCAAUAUUACGGGGC	-3.09 ± 0.32	-2.82 ± 0.34
UUCCAGCAAUAUUACGUACG	-0.796 ± 0.1	-0.902 ± 0.16
UUCCAGCAAUAUUACGUCCA	-1.05 ± 0.12	-0.679 ± 0.14
UUCCAGCAAUAUUACGUCCC	-2 ± 0.33	-1.84 ± 0.3
UUCCAGCAAUAUUACGUGGC	-3.11 ± 0.15	-3.15 ± 0.24
UUCGAGCAAUAUUACGACGG	-1.24 ± 0.11	-0.685 ± 0.1
UUCGAGCAAUAUUACGACUG	-3.35 ± 0.34	-1.48 ± 0.26
UUCGAGCAAUAUUACGAGAU	-3.95 ± 0.35	-2.34 ± 0.31
UUCGAGCAAUAUUACGAUAU	-3.85 ± 0.33	-2.51 ± 0.49
UUCGAGCAAUAUUACGAUCA	-1.89 ± 0.2	-0.432 ± 0.14
UUCGAGCAAUAUUACGCAAA	-0.773 ± 0.28	-1.92 ± 0.26
UUCGAGCAAUAUUACGCACC	-3.33 ± 0.29	-1.91 ± 0.24
UUCGAGCAAUAUUACGCAUC	-2.83 ± 0.39	
UUCGAGCAAUAUUACGCCAA	-2.89 ± 0.48	-2.07 ± 0.27
UUCGAGCAAUAUUACGCGUA	-1.94 ± 0.14	-1.51 ± 0.12
UUCGAGCAAUAUUACGCGUC	-2.99 ± 0.23	-2.34 ± 0.37
UUCGAGCAAUAUUACGCGUU	-1.87 ± 0.22	-1.88 ± 0.27
UUCGAGCAAUAUUACGCUCU	-3.38 ± 0.15	-2.43 ± 0.14
UUCGAGCAAUAUUACGCUUA	-2.79 ± 0.21	-1.58 ± 0.18
UUCGAGCAAUAUUACGGAAA	-1.51 ± 0.18	-2.84 ± 0.32
UUCGAGCAAUAUUACGGAAG	-2.42 ± 0.22	-2.12 ± 0.4
UUCGAGCAAUAUUACGGCGC	-2.99 ± 0.34	-2.36 ± 0.39
UUCGAGCAAUAUUACGGGUA	-1.16 ± 0.18	-1.36 ± 0.15
UUCGAGCAAUAUUACGUCCA	-2.49 ± 0.31	-1.75 ± 0.44
UUCGAGCAAUAUUACGUCUA	-1.29 ± 0.15	-0.414 ± 0.13
UUCGAGCAAUAUUACGUUAU	-2.58 ± 0.2	-2.82 ± 0.38

Sequence	self-splicing fitness (ln) (30 °C)	self-splicing fitness (ln) (37 °C)
UUCGAGCAAUAUUACGUUCC	-2.94 ± 0.26	-1.19 ± 0.3
UUCGAGCAAUAUUACGUUUU	-3.49 ± 0.18	-2.77 ± 0.2
UUCUAGCAAUAUUACGAAUG	-2.45 ± 0.4	
UUCUAGCAAUAUUACGACCG	-1.13 ± 0.26	-1.07 ± 0.42
UUCUAGCAAUAUUACGACUG	-1.64 ± 0.17	-0.702 ± 0.2
UUCUAGCAAUAUUACGAGUA	-0.88 ± 0.15	-0.0809 ± 0.13
UUCUAGCAAUAUUACGCACA	-0.654 ± 0.27	-0.205 ± 0.23
UUCUAGCAAUAUUACGCAGU	-3.89 ± 0.43	-3.11 ± 0.35
UUCUAGCAAUAUUACGCAUU	-1.95 ± 0.29	-1.5 ± 0.35
UUCUAGCAAUAUUACGCUGC		-2.1 ± 0.38
UUCUAGCAAUAUUACGGAUA	-1.44 ± 0.17	-0.551 ± 0.15
UUCUAGCAAUAUUACGGCCU	-3.05 ± 0.38	
UUCUAGCAAUAUUACGGGGA	-0.859 ± 0.21	-0.995 ± 0.21
UUCUAGCAAUAUUACGGUGU	-3.4 ± 0.32	-2.91 ± 0.37
UUCUAGCAAUAUUACGUCCG	-1.45 ± 0.25	-0.81 ± 0.31
UUCUAGCAAUAUUACGUCGG	-3.54 ± 0.26	-3.1 ± 0.29
UUCUAGCAAUAUUACGUGAC	-3.69 ± 0.31	-1.61 ± 0.24
UUCUAGCAAUAUUACGUGGC	-3.1 ± 0.24	
UUCUAGCAAUAUUACGUGUC	-3.35 ± 0.19	-3.01 ± 0.21
UUGAAGCAAUAUUACGAAUA	-0.868 ± 0.12	-1.13 ± 0.15
UUGAAGCAAUAUUACGACCC	-3.15 ± 0.28	-0.772 ± 0.17
UUGAAGCAAUAUUACGACCG	-0.105 ± 0.28	0.113 ± 0.28
UUGAAGCAAUAUUACGACCU	0.0483 ± 0.11	0.587 ± 0.14
UUGAAGCAAUAUUACGACUG	-0.106 ± 0.073	0.183 ± 0.097
UUGAAGCAAUAUUACGAGAG	-1.5 ± 0.12	-0.926 ± 0.14

From the supplement of paper PMC7877785
